This passage reports stoichiometry N results from publication PMC9734910.

In the assay the target is Bat37ACE2(18–740) (Pipistrellus pipistrellus (Bat37)). The experiment in a line: […]; 20 mM HEPES, 100 mM NaCl, pH 7.5.

The stoichiometry N is a count of units in the complex or per binding partner. The substance Bat37ACE2(18–740) (domain or fragment) had a stoichiometry N of 2.
